Experimental data as given in patent US20090155164A1 (Amgen, published 2009).

Tests used:
[1] = molecular target: T1, avidin-c-fms Ig-like 1 domain fusion protein (chicken; human, UniProt P07333 20-126); assay: FACS, biotin beads loaded with the avidin fusion protein, FITC-labeled antibody; Neg CM value of this antibody 3.32
T1 construct: Joined through an XhoI site; Captured on biotin beads; also called Ig1 construct; Ig-like loop 1 (IPVI-ALLP); not shown: chicken avidin, N-terminal fusion partner from pCEP4-Avidin(N)
Description: (§1) The concentration of each c-fms avidin fusion protein was determined using a quantitative FACS based assay. The c-fms avidin fusion proteins were captured on 6.7 μm biotin polystyrene beads (Spherotech, Inc., Libertyville Ill.). 1× conditioned media (20 and 200 μl) were added to 5 μl (˜3.5×10⁵) beads, and incubated for 1 hr at room temperature with rotation. Conditioned media was removed by centrifugation and samples were washed with PBS containing 0.5% BSA (BPBS). The avidin beads were stained with 200 μl of a 0.5 μg/ml solution of a goat FITC-labeled anti-avidin antibody (Vector Labs, Burlingame, Calif.) in BPBS for 45 minutes at room temperature covered by foil. Following incubation, the beads were recollected by centrifugation, washed with BPBS, and resuspended for analysis in 0.5 ml BPBS. The FITC fluorescence was detected using a FACScan (Becton Dickinson Bioscience, Franklin Lakes, N.J.). The signal was converted to protein mass using a standard curve derived with rAvidin. For epitope mapping, biotin beads were loaded with ˜100 ng of c-fms avidin fusion protein per 3.5×10⁵ beads and brought up to volume with growth medium.
(§2) After incubation for 1 hr at room temperature, 3 ml washing buffer (BPBS) was added and the antibody-beads complexes were collected by centrifugation for 5 min at 750×g. The pellet was washed in 3 ml of BPBS. The antibody bound to avidin-bead complexes was detected by FACS (Becton Dickinson) analysis. The mean (X) fluorescent intensity was recorded for each sample.

[2] = molecular target: T2, avidin-c-fms Ig-like 1-2 domain fusion protein (chicken; human, UniProt P07333 20-223); assay: as above
T2 construct: Captured on biotin beads; also called Ig1-2 construct; Ig-like loops 1 and 2 (IPVI-AQIV); not shown: chicken avidin, N-terminal fusion partner from pCEP4-Avidin(N)
Description: as §1, §2

[3] = molecular target: T3, avidin-c-fms Ig-like 1-4 domain fusion protein (chicken; human, UniProt P07333 20-418); assay: as above
T3 construct: Captured on biotin beads; also called Ig-like loops 1-4 (IPVI-GTLL); not shown: chicken avidin, N-terminal fusion partner from pCEP4-Avidin(N)
Description: as §1, §2

[4] = molecular target: T4, avidin-c-fms Ig-like 1-5 domain fusion protein (full extracellular domain) (chicken; human, UniProt P07333 20-512); assay: as above
T4 construct: Captured on biotin beads; also called c-fms ECD Ig1-5 construct; human c-fms ECD; not shown: chicken avidin, N-terminal fusion partner from pCEP4-Avidin(N)
Description: as §1, §2

[5] = molecular target: T1, avidin-c-fms Ig-like 1 domain fusion …; assay: FACS, biotin beads loaded with the avidin fusion protein, FITC-labeled antibody; Neg CM value of this antibody 4.74
Description: as §1, §2

[6] = molecular target: T2, avidin-c-fms Ig-like 1-2 domain fusion …; assay: as above
Description: as §1, §2

[7] = molecular target: T3, avidin-c-fms Ig-like 1-4 domain fusion …; assay: as above
Description: as §1, §2

[8] = molecular target: T4, avidin-c-fms Ig-like 1-5 domain fusion …; assay: as above
Description: as §1, §2

[9] = molecular target: T1, avidin-c-fms Ig-like 1 domain fusion …; assay: FACS, biotin beads loaded with the avidin fusion protein, FITC-labeled antibody; Neg CM value of this antibody 4.22
Description: as §1, §2

[10] = molecular target: T2, avidin-c-fms Ig-like 1-2 domain fusion …; assay: as above
Description: as §1, §2

[11] = molecular target: T3, avidin-c-fms Ig-like 1-4 domain fusion …; assay: as above
Description: as §1, §2

[12] = molecular target: T4, avidin-c-fms Ig-like 1-5 domain fusion …; assay: as above
Description: as §1, §2

T3 sequence (P07333 20-418 limits assumed): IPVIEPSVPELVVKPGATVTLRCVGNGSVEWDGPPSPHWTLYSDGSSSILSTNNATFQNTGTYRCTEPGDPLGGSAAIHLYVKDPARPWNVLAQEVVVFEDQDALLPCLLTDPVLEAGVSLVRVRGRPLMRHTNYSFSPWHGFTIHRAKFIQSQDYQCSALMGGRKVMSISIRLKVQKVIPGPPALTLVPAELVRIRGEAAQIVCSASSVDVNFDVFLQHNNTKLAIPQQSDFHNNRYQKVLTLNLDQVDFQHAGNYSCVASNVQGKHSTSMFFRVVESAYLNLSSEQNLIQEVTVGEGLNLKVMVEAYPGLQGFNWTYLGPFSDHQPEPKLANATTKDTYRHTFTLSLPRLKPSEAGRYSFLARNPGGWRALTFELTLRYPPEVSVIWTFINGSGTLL
T1 sequence (P07333 20-126 limits assumed): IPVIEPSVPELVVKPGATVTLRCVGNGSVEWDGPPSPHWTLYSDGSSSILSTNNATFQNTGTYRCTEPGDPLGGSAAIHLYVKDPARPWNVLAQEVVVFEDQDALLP
T4 sequence (P07333 20-512 limits assumed): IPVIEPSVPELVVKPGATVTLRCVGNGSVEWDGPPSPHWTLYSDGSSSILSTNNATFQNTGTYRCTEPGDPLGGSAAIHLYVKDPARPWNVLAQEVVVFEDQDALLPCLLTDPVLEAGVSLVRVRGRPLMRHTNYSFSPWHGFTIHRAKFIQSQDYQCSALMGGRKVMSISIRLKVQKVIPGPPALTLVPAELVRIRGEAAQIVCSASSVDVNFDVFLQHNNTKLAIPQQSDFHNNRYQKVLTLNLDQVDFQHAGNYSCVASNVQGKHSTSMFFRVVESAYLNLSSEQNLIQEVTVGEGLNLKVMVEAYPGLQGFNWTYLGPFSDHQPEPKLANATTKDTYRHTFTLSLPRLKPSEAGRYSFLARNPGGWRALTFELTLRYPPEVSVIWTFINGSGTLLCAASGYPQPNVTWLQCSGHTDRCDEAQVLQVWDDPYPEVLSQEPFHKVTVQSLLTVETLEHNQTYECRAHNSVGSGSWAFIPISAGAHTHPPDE
T2 sequence (P07333 20-223 limits assumed): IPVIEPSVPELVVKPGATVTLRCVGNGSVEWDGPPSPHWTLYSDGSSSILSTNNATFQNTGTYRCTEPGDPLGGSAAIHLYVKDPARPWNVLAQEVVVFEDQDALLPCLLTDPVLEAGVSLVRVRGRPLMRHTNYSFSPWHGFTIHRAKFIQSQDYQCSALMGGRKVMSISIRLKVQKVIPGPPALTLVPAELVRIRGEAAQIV

B1: anti-c-fms IgG2 clone 2.360 (parent form, PT) (antibody, V domains shown)
VH: QVQLVQSGAEVKKPGASVKVSCKVSGYTLTELSMHWVRQAPGKGLEWMGGFDPEDGETIYAQKFQGRVTMTEDTSTDTVYMELSSLRSEDTAVYYCATGVMITFGGVIVGHSYYGMDVWGQGTTVTVSS
VL: DIQMTQSPSSLSASVGDRVTITCRASQGINNYLAWYQQKPGKVPQLLIYVASTLQSGVPSRFSGSGSGTDFTLTISSLQPEDVATYYCQKYNSGPFTFGPGTKVDIKR
modifications: N-terminal glutamine cyclized to pyroglutamic acid; C-terminal lysine absent
notes: Recombinant human IgG2 kappa from COS/PKB cells
MFI [1]: 2.85
MFI [2]: 12
MFI [3]: 10.4
MFI [4]: 15.4

B2: anti-c-fms IgG2 clone 1.2 (parent form, PT) (antibody, V domains shown)
VH: QVQLVQSGAEVKKPGASVKVSCKASGYTFTSYGISWVRQAPGQGLEWMGWISAYNGNTNYAQKLQGRVTMTTDTSTSTAYMELRSLRSDDTAVYYCARESWFGEVFFDYWGQGTLVTVSS
VL: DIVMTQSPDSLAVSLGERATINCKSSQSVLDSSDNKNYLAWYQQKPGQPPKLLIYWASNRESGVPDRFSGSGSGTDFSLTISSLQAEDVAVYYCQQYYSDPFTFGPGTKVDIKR
modifications: N-terminal glutamine cyclized to pyroglutamic acid; C-terminal lysine absent
notes: Recombinant human IgG2 kappa from COS/PKB cells (hybridoma was IgG1); also called 1.2.1; Clone 1.2 PT
MFI [5]: 2.89
MFI [6]: 148
MFI [7]: 134
MFI [8]: 342

B3: anti-c-fms IgG2 clone 1.109 (parent form, PT) (antibody, V domains shown)
VH: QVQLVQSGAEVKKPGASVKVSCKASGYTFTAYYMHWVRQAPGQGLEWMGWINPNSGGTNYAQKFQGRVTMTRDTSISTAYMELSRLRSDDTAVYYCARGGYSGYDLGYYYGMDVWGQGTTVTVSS
VL: DIQMTQSPSSLSASVGDRVTITCQASQNISNFLDWYQQKPGKAPNLLIYDASDLDPGVPSRFSGSGSGTDFTFTISSLQPEDIATYYCQQYVSLPLTFGGGTKVEIKR
modifications: N-linked glycosylation site at Asn-28 in CDR1, reported as likely occupied; N-terminal glutamine cyclized to pyroglutamic acid; C-terminal lysine absent
notes: Recombinant human IgG2 kappa from COS/PKB cells (hybridoma was IgG1)
MFI [9]: 2.93
MFI [10]: 232
MFI [11]: 215
MFI [12]: 668
